Drawing on the NTF2 design screens of Basanta et al. (2020), this text covers protease stability score for 47 sequences.

The data set in a line: protease stability score; higher = more stable; yeast display proteolysis, trypsin and chymotrypsin.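 Also: log10 excess protease needed over predicted unfolded state with 0 meaning unfolded.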

Sequence “DETDQVETLLKRFKEAVDHGDKHQARHLFRDDVRIKYGDKEIHGRDNLAHWIVDRARRADHVDFTIRQFDVRNGRVSVDVEVRYDVNGKHDHKRYTLRADLRNGRATAVTIEVR” yielded a protease stability score of 0.344.

For the sequence “DETDTAKDFAEELRTIFESNDFKRYQQLFDPNAKIHVGEKRLHGDRRVNNLIKEIFDRADHLHFDLREFEVKGEKVRIRYVEKQKINGKDETRDVVMVAVKQGDKMYITEVRHQ”, the protease stability score worked out at 1.13.

For “DETEAKKNVEVVEQNDWDTFEDQVDENAKMKVGDKEIHGREQFSEFADNMKKNADHVEVKSVDRRGDEINIEMVVSVNGKRVTYVVQFVVNNGKIHDVQFDARSEDDERFLKEVQS”, the protease stability score is 0.619. For “DETEDKKAQQLAKAINDGDEHDVRKMMDKDVKVDVGDKQLHGREQAAKWMSRHRREQRRTIEVTDVKMHGEKAELDANLRVDVNGQPRTHRVRIIVSITNGRLQHLEIHMDPRFEQSVQS” the value was -0.25; for “DETEEVQKLVHRWRQAMEDGNPDDLRKNMDEDAEMRYGDKSWHGRENIAQNLHKERQRADSISITIEDMDHENGKAVVHLNITFTVNGRKETKRYDLDVEVNGDKLKIKQIQQE”, 0.247. With “DETEHAKRLAEEFVRNVETGDESRLVELADPNAKFEVGDTTVHGMEDYAHNMHKRRNEADHFDFKVKSVHVSNGNIRVDIDYRVNHNGKVEKQRMVIYMTKHGDKYRIKKIEVS”, the protease stability score is -0.082.

In turn, “DETEIRLFHQFLRAIETNDEERAQQLADEDARYRYGNKEIDGMTQFQEDMDDKHKEARYSYSIDSVHDEPNRVVVEARAMVKINGKPTTYQVELHAHFHNGRMKKFTASVPEETLQSIRS” yielded a protease stability score of 0.054. Regarding “DETEKADQMVHDLEEAIKTGDPDEISNQADPNVSFHYGDKTFHGREKLAEWFLELQKRVDHMHLDIKDIEVQGDKATITMQMVLDKNGDDERKDIRVEAQYHNGRLTISFAEAR”, the protease stability score was 2.15. For “DETEKAKRFFDEWLKALHRGDPDEVKKLADPNVRFEVGDKEIHGRSNMAKHVTDLRKRADSFSASIDSIDIKGEKVVIDAKLTYNHNGRKTHNKVEFDAKVHNGKIKLKEIIVR” the value was -0.257; for “DETEKAKTFMDELRKVLQTGDEEQISRNMDPNARLNVGDKTIHGRERLAKEMSDEVKRADHIDIKVKSISVHNGKVRVDFFFTLEYNGQHRRTRRIMHADISDGQIKIKQIHDN”, 1.4. The sequence “DETELRKMQEVQEHNDPDEWKKQADKDVRLKVGNKRLHGREDVHRYLKTHRDQADHIRYKSFDFDGDKADITFHAVVNGRTFEANQEIRIHNGRIQEVNIHYTDDQVQRELEELFG” gave a protease stability score of -0.195. “DETEQAKKLLNDIENIFRTGDPKQLEKLAPPDVDVRVGDKEVHGKEQVVEELQRRQESFDHIEFNLHRVSVSGDKYRLDYEVRFDHNGRTETYRVVVVYVNNNGRLQDKSMTIK”: the protease stability score amounted to 0.684. Take “DETETMEQMIQDLHRALQQGDHETVKELIPPDAEMQIGDKTWHGKEQVARHLVEHAQTADHIDIDIKSIKIEGNKLVVNLKVVYDRNGHRETQTYELMVDVNNGEFRIVEQRQP”: the protease stability score is 0.921. On to “DETEVAHRFLNQERRNWKTGNRQSFENMFRDNVRAQYGDKTVTGREDMKRWLDRILKEVDHVRIEIKDLKREPGRVSLDVVVVFEHNGHKDKKRYVIDAVASGDKMIIDQVQDK”, for which the protease stability score turned out to be 0.165. For “DETEWREFAEEFIRLFQQGDEDRLRKLIDKNAKIRYGDREVDGRDSIAKQIRDNREQIDRIDLVDMKVRGEHITITIDVDHNGQRRRIVIHINVHNGHIKNVEVDSG” the value was 1.02; for “DETHDAHRKAEEIITALRTGDPKQAESLVPENVKIDVGDKTIHGKEQYSKEFKKFTDRVDKVEVRIKHVHVQGDKIKIRMEARENVDGQDKRYQFVLIFDRHNGKDQAVSIKVD”, 1.02.

The sequence “DETHKAKEMLKEFHTAVSKGDEDRYSNLLDENVHITYGDKTVHGREEAVKLFTELQERADHVDVDVVSVDVKGETVKARIRINFVYDGREDRHEFTLIAIVDNGRFVIKSIIQK” returned a protease stability score of 1.22. For the sequence “DETHLKLLEHFFKQWMTGNQQELRSLADPNVEYVYGEHRVRGREQMAKDLVRELHEMTISMRSVTSDIRGDQAVVTVNFQQDKNGEPDEVNVKMRAEVHNGRIKSMNAKFHQ”, the protease stability score was -0.287. Next, “DETIHDQAQRFFRDVQTGDEENIHKYFDPNARFVVGDKDLHGMSEVAEDLARKWNEWRVDVRDYRIKVHNGRIEVHIDARFDHDGQPEDRSEVVVYTMKNGQVQMVEFHKQG”: 0.464; “DETKAAQVAAELISAIVHGDTDRALELADKDVRADIGENKVHGREEMHKMVEQYDKSVDHASVKTYKVSGNSVKVNVEVTHNGRKRTVDFTAEAHNGKAKQVTAEVK”: -0.768; “DETKDTEAAERYLENFKTGDPKKLANQFDKNAKVVVGDNEIHGREELQRNNESFVKRVDHIDLQTVDMRGDKFRYQVVIKINGNSVIVNYSIVMHNGKFERNHVDPKDMDRLKQ”: 0.363. For “DETKLMTELAEKLNRVIQKNNPDEARKLMDPNARQQVGDTRYHGNEQLAEYMKDMHERYDHVEVDVKDVNVSGDHATLEAKVHFRHNGKNTTINQNIVATIHNGKVVLKQVTSK” the value was 0.465; for “DETKQAERVAETEKRIWERGDPDKLNEMFDPNVRIDVGDKEVNGREKLKEYIERILTQVDHVRLNFTSISVHNGSVELKYTLVREDNGRRRRDTFVIHMELHNGQARVTSVRRG”, 0.405; for “DETKQQELIHRLLEALETGNPDEYIKNLDKDVRVVVGDTEVHGREDLKKLFERLTHQIDHQHIKDYKVSNGQADVKLVVVNNGQERRLTIKIVVRNGHVKEVVWNDR”, 1.77. As for “DETKVKKLAETVIKILFSGDKKTAKDLLKPNVKFEALDVELHGPDQVRKYYDKVKKHGAEMHVQRNEVKGNTAEVEYVLKVGGTEIKVKATLYVKDEKVDKAEVNNSEEYKKYVQKG”, the protease stability score was -0.018.

The sequence “DETKVKKLVVHVAQVLMSGQVDEAQKFLNPDVEFHAGNVTLHGPEQVLEYYKKIQKRGVEFHVKEAEVHGNTVEVKYDVKFDGTEQTLKFKAEVKDTVVEKAELEIDEDYVRAVQKG” showed a protease stability score of 1.11. For “DETLFELIQRLIEAYKHGNPDELKKQADPNARVKVGDKELHGMEEIAKELVTQRKQQRLSYLSINNDDDPNHARVRFNVEVERNGQPRTKRFELRAETHNGRLISMEVQSRR” the value was 0.232; for “DETNERVARTMLEVRQHNNPDDLRKMLDPNVKVVIGDKEVHGREDYINKFEERVKHIRVDVKVDHIDSQGNRLDIDVTFTMNVNGQPVKDRMRFVIQITNGKIEEVDVSVPEEELKKQEK”, 0.909. Next, “DETNKEQFDRLLKHQKTGNPQEVVKNADPNVKMRIGNKTWHGRENINQDVERRRRKMRIDINVKSVDSHGEELRIDARVQYNINGKPLEDDVVIIAEVHNGKFKHIEVRIPERMQKKLER”: 0.637; “DETNKKAVEDYIKALETGDDEMAKRLMDKNATVEIGDKEVTGREEIHEQFKRDVKEIRVRIDRVHVKDQGDKVNLRAREKQTVNGHPISFEFQVEFHAHNGKIKHVEWQIDKDQLRKLKG”: 0.119; “DETNLKKVLDVLKDNDEKKLEELADEDAKNDIGNFDYRGRRQFEEAMRHRRKMIDSLEVKSVRADGDKAEIDMSAVINGREVKASQMVKVHNGRIKSISVRFTDPDKEREADKKAQ”: 0.023.

Consider “DETNRKQASRVLENLQTGDPRQVSELVDPNARVTVGDKQVTGRENIMQRVKHELDQSRIQIDHYEIDDKGESADLRMTQQVDHNGNPTRTKYQVEVEAENGKIKEITIEERS”, for which the protease stability score was -0.271. Next, “DETNVKNAEEWLRALQDNNSEQLRKLMDKDVRVEIGDDVIKGREDVVTNLIRKARELRFRIKVDKIEDDNGKVVVHAEATFTHNGKPDRVEVELVFSLDNGKIKEVVVKTDG”: 1.69; “DETNVRSVERFVHALKQGDPDKLHRNADPNVKVQIGDKVIHGREELSKDQKRRNKSMRLSYKDYRNEDTNGNVIVHLTFTSERDGQPRENEYRAHITLNNGKIREVDMKSDG”: -0.288; “DETQDKKAERLVKKNNWDEMVRNADKDVRVQVGDYEVHGREDMKRLAKKFKDRYDHVKVDDVQVHNGRVNADMKATVDGHTIRFILQADIHNGRFKYMTLQARSSEQEKHLKRLFQ”: 0.475. Next, “DETQLRIASEFEEAVRRGNEEQAKRNVDPNARVRVGDTEVHGNEQIAKKIRQEVEHARVSVKSVTNHTDENRVVIDVEFEATHNGEPTSKKYQVNIEIRNGKIKEINYHDSK”: -0.157; “DETQMDHIRRFFEAVVNGDPDELERQADPNVKFSVGNQQWHGENQLKKEAEKRRKEIRINIKSMEVRVHGDSVVVHIRQEVEVNGQPEDITFTMTVEVSNGKIKSVDVQMDQQEERNVQR”: -0.342.

“DETQMKHLAEEFNKAQKRGNEEKLRELIDKDVTMKVGDKEVHGRERVADKMRKMIERADSISIRDVKSQGDRAEIDMEYRVDGRHRVVIVILRFSNGRIVYAEFQSS” displayed a protease stability score of 1.08. For “DETQRAEEFFKRMQKLAHTNNFEHLANMADPNANFRVGDKTFHGRRDMIRQQKQIRERVDHVEYDVRRIDVHGNELDIKLEVNYDVNGKKDTRTVHYNAENNNGDVVISRVEYK” the value was 0.127; for “DETREAQEIAKRIHKAVEENDEKQLEDQMPPDASVEVGDKTIHGRSRIARELWEEVETADHVNVSITSIRVDGDKVHVDMRYQFDDNGDDDVKHQKAQYVRNGDHFVLKNVHRK”, -0.225; for “DETRMRELDKVFHHNDPDKMRENLDENVRMVVGDKSFTGRHQVQDWLKIFHDQVDHFEVESLTKEGNKIDVVYRAVVNGQEFRMRVDITVHNGRIKMIKVDFTNEDETRQFLEHIK”, 1.55. Next, “DETRQAKDMVSELRKALKQGDEDKAMKLADPNVRLDVGEKDLHGRERLKEWVTEIRDKYDRVDLKVTHVHVRGNKIVVHAEVVMRRNGHQKTMTLTIVVRLQGDHLHIVEITQR”: 0.803; “DETTEASKLLHRINTAWQTNDPDQFQEQFDENARAKVGDKTVHGRKNMNELLKRLVENVDHIDVQVVDFRVDGDKLVIYFRVQNEHNGKHEHDQYAIWAVDRNGHVRAIEWHES”: 0.272; “DETTVHHILKNFNEAMEQGDPKQAMRLADKDVKLDVGDKRVSGSETLDTLVKNIRDQADTISVKTVHVDGDTAHAVLVIRINGKDVEFNVRIEVHNGRIKSLEMDPDKLKSAMK”: 0.852.

The sequence “DETVEELIKRFMRAIKNNNPDELVRNADKDAKYDIGDKTIHGREQLHDHVEHLRDEMQIDYEVENLKVHNGRADVDVKNNNNHNGRPETKRLRLDVVVHNGKIKDVKFQDTR” yielded a protease stability score of 0.243.

“DETVLQVVHRFLKAVETGDPKEVRKNADPNAKAVVGDQTVSGRETLAHQIEREREEMSFEWEKVTNDVQGEHVDVDFTMRMTHNGRPDRSRVRIKYQVHNGKLTYVRVTDDK”: the protease stability score was -0.149.

As to “DEVEKAKNLFDRLVRAFKNNNWKQFSDLADEDVRYVVGDKEWHGREQADEMFREMVEEIDHYDIHVKDIKFHNGKVDLKATASFSVNGKTHRFTVEWRVQMHNGHLRVKQVILK”, the protease stability score turned out to be 1.25.
